Reference: patent US20180016337A1 (HELIX BIOPHARMA, published 2018)

Target: T1, CEACAM6 antigen (carcinoembryonic antigen related cell adhesion molecule 6) (human, UniProt P40199 35-320)
T1 construct: also called CD66c
T1 sequence: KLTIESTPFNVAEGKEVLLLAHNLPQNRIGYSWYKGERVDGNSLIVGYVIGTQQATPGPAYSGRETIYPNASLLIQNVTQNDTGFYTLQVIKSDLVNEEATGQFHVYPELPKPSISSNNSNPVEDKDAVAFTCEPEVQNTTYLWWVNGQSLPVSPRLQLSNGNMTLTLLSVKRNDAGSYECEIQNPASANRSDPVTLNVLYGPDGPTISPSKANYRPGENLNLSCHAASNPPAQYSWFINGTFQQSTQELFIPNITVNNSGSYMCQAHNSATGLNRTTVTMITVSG
Assay: SPR, format not stated

- Kd: 5 nM
B1: 2A3 camelid single domain antibody (anti-CEACAM6) (VHH)
VHH: QVKLEESGGGLVQAGGSLRLSCRTSGRTNSVYTMGWFRQAPGKEREFVAQIMWGAGTNTHYADSVKGRFTISRDSAESTVYLQMNSLKPEDTAVYYCAANRGIPIAGRQYDYWGQGTQVTVSS
notes: Llama sdAb isolated from a whole cancer cell immunized library; also called 2A3 antibody; 2A3 anti-CEACAM6 antibody
